# Laboratory results from patent US20160282364A1 (published 2016).
# Tests used:
# [1] = target: 31; assay: fluorescence polarization; without insulin
# [2] = target: 31 + insulin; assay: fluorescence polarization; Kapp, with 2.5 uM insulin
binder,measurement,setting,value
IDE (enzyme) MNNPAIKRIGNHITKSPEDKREYRGLELANGIKVLLISDPTTDKSSAALDVHIGSLSDPPNIAGLSHFLQHMLFLGTKKYPKENEYSQFLSEHAGSSNAFTSGEHTNYYFDVSHEHLEGALDRFAQFFLSPLFDESAKDREVNAVDSEHEKNVMNDAWRLFQLEKATGNPKHPFSKFGTGNKYTLETRPNQEGIDVRQELLKFHSAYYSSNLMAVVVLGRESLDDLTNLVVKLFSEVENKNVPLPEFPEHPFQEEHLKQLYKIVPIKDIRNLYVTFPIPDLQKYYKSNPGHYLGHLIGHEGPGSLLSELKSKGWVNTLVGGQKEGARGFMFFIINVDLTEEGLLHVEDIILHMFQYIQKLRAEGPQEWVFQELKDLNAVAFRFKDKERPRGYTSKIAGILHYYPLEEVLTAEYLLEEFRPDLIEMVLDKLRPENVRVAIVSKSFEGKTDRTEEWYGTQYKQEAIPDEVIKKWQNADLNGKFKLPTKNEFIPTNFEILPLEKEATPYPALIKDTAMSKLWFKQDDKFFLPKANLNFEFFSPFAYVDPLHSNMAYLYLELLKDSLNEYAYAAELAGLSYDLQNTIYGMYLSVKGYNDKQPILLKKIIEKMATFEIDEKRFEIIKEAYMRSLNNFRAEQPHQHAMYYLRLLMTEVAWTKDELKEALDDVTLPRLKAFIPQLLSRLHIEALLHGNITKQAALGIMQMVEDTLIEHAHTKPLLPSQLVRYREVQLPDRGWFVYQQRNEVHNNSGIEIYYQTDMQSTSENMFLELFAQIISEPAFNTLRTKEQLGYIVFSGPRRANGIQGLRFIIQSEKPPHYLESRVEAFLITMEKSIEDMTEEAFQKHIQALAIRRLDKPKKLSAESAKYWGEIISQQYNFDRDNTEVAYLKTLTKEDIIKFYKEMLAVDAPRRHKVSVHVLAREMDSNPVVGEFPAQNDINLSQAPALPQPEVIQNMTEFKRGLPLFPLVKPHINFMAAKL,Kd,[1],42 nM
same,Kd,[2],280 nM
